In the test the target is pCMV-BD-DLC-1 (human) (UniProt Q96QB1). Put plainly: two-hybrid.
UniProt Q96QB1, sequence (Q96QB1 whole entry): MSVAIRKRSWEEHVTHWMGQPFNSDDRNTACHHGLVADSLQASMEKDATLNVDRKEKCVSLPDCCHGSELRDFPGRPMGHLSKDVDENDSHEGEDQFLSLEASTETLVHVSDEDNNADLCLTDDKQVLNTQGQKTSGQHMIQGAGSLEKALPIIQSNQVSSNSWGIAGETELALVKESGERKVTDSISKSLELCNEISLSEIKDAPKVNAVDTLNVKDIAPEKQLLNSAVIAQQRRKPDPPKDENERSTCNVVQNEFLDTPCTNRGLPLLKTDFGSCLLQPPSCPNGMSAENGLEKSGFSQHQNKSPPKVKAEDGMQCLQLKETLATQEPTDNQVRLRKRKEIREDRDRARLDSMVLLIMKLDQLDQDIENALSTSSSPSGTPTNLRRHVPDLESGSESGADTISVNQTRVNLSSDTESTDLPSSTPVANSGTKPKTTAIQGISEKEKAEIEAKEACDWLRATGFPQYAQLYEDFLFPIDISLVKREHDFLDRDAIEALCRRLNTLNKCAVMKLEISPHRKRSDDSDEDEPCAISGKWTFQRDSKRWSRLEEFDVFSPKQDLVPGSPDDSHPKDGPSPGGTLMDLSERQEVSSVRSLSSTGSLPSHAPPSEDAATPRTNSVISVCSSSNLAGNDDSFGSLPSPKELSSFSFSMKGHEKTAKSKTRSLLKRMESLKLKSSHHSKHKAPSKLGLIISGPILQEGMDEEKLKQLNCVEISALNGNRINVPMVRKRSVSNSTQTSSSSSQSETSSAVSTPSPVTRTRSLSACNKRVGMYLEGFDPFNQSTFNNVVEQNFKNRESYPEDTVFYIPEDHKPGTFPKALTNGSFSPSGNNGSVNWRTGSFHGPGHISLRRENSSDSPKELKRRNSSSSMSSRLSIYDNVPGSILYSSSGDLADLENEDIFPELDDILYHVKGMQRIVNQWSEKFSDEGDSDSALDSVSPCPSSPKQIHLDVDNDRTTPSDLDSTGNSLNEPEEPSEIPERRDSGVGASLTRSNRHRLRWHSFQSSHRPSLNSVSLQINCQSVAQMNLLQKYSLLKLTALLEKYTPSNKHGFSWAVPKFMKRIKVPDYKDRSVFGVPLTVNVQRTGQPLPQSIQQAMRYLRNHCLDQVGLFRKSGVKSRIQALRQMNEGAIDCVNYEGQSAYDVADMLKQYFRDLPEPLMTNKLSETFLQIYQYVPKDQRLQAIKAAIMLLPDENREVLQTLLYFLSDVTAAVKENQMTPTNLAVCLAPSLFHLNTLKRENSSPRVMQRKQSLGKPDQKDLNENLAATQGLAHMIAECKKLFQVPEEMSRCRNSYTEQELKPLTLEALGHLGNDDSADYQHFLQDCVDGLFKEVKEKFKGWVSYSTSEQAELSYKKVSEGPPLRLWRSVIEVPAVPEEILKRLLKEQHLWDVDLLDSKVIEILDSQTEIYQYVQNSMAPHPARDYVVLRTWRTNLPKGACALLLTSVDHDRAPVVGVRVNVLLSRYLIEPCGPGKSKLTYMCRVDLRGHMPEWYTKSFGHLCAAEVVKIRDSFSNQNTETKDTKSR

Take “pCMV-AD-cten (from UniProt Q8IZW8 1-715) (natural protein)”: the fold enhancement of luciferase activity was 4 fold.

Source of the values: article PMC2063623.
